Experimental data reported in patent US20160289304A1 (VIRO DYNAMICS, published 2016).
Numbering of substitutions follows the chain as printed.

B1: 39-3F2-2A6 (mAb-2A6) (antibody, V domains shown)
VH: DVKLVESGGGLVKPGGSLKLSCAASGFTFSSYTMSWVRQTPEKRLEWVATISSGGIYTYYPDSVKGRFTISRDNAKNTLYLQMNSLKSEDTAMYYCVRSTSYYFDYWGQGTTLTVSS
VL: DIVMTQSPSSLTVTAGEKVTMSCKSSQSLLSDGSQKNYLTWCQQKPGQPPKLLIYWASTRESGVPDRFTGSGSGTDFTLTISSVQAEDLGVYYCQNDHSYPLTFGAGTKLELK
notes: also called HANA 39-3F2-2A6; sample 22b
B2: 56-2G9-1B3 (mAb-1B3) (antibody, V domains shown)
VH: EVQLVESGGGLVKPGGSLKLSCAASGFIFSSYVMSWVRQTPEKRLEWVATISSGGTNTYYPDSVKGRFTISRDNAKNTLYLQMSSLRSEDTAIYYCVRSYRYYFDYWGQGTTLTVSS
VL: B1 VL with S31N, D32S, C42F, P49S, T59S, G90A, H98S, S99N
B3: 39-4D12-2D11 (mAb-2D11) (antibody, V domains shown)
VH: B1 VH with L18P, I56S, V64L, N84S, M93I, Y95H
VL: B1 VL with S22N, S82D, V91I
notes: also called HANA 39-4D12-2D11; sample 28b

Legend:
[1] = target: T1, hemagglutinin (HA) of A/Puerto Rico/8/1934 (PR8, H1N1) (Influenza A virus A/Puerto Rico/8/1934 …, UniProt P03452 18-565); experiment: cell-based or functional assay
[2] = target: synthetic peptide #34 […] (Influenza A virus A/Puerto Rico/8/1934 …); experiment: peptide ELISA, peptide coated at 10 µg/ml, mAb at 1 µg/ml
[3] = target: T1, hemagglutinin (HA) of A/Puerto …; experiment: cell-based or functional assay; remark: listed apart in the source
[4] = target: synthetic peptide #39 […] (Influenza A virus A/Puerto Rico/8/1934 …); experiment: peptide ELISA, peptide coated at 10 µg/ml, mAb at 1 µg/ml

Row | Binder | concentration for complete neutralization of PR8, plaque inhibition assay [1] [µg/mL] | in ovo neutralization, concentration for complete blocking of PR8 growth [1] [µg/mL] | binding result [2] | HI Titer to PR8 [3] [reciprocal dilution] | binding result [4]
1 | B1 | 0.1 | 16 | binds | 80 | 
2 | B2 | 0.1 | 8 |  | 40 | 
3 | B3 | 0.1 | 4 |  | 20 | binds
